Measured values taken from patent US20190367589A1 (CYTOMX THERAPEUTICS, published 2019).
Positions count from the first letter of the chain named.

T1: JS5340
T1 construct: also called masking moiety JS5340
T1 peptide displayed on cells: CNLWLHGGDCRGWQG

T2: JS5347
T2 construct: also called masking moiety JS5347
T2 peptide displayed on cells: CNIWGPSVDCGALLG

T3: JS5358
T3 construct: also called masking moiety JS5358
T3 peptide displayed on cells: CNIWVNGGDCRSFEG

B1: masking moiety JS4906 (peptide)
peptide: CFLYSCTDVSYWNNT
B2: masking moiety JS5342 (peptide)
peptide: CNIWLVGGDCRGWQG
B3: masking moiety JS4879 (peptide)
peptide: QLGLPAYMCTFECLR
B4: masking moiety JS5877 (peptide)
peptide: GCNIWLVGGDCRGWIGDTNG
B5: masking moiety JS5885 (peptide)
peptide: GCNIWLVGGDCRGWIEDSNG
B6: masking moiety JS4897 (peptide)
peptide: SCSLWTSGSCLPHSP
B7: masking moiety JS4874 (peptide)
peptide: PWCMQRQDFLRCPQP
B8: 4D11 Fab (Fab, V domains shown)
VH: EVQLLESGGGLVQPGGSLRLSCAASGFTFSSYAMSWVRQAPGKGLEWVSSIDPEGRQTYYADSVKGRFTISRDNSKNTLYLQMNSLRAEDTAVYYCAKDIGGRSAFDYWGQGTLVTVSS
VL: DIQMTQSPSSLSASVGDRVTITCRASQSISSYLNWYQQKPGKAPKLLIYAASSLQSGVPSRFSGSGSGTDFTLTISSLQPEDFATYYCQQTVVAPPLFGQGTKVEIKR
notes: C-terminally His-tagged Fab from the periplasm of E. coli; also called anti-Jagged Fab 4D11; Fab 4D11
B9: 4E7 Fab (Fab, V domains shown)
VH: EVQLLESGGGLVQPGGSLRLSCAASGFTFSSYAMSWVRQAPGKGLEWVSSIEEMGWQTKYADSVKGRFTISRDNSKNTLYLQMNSLRAEDTAVYYCAKSAAAFDYWGQGTLVTVSS
VL: B8 VL with T91S, V92L, P96L, L97T
notes: C-terminally His-tagged Fab from the periplasm of E. coli
B10: 4B2 Fab (Fab, V domains shown)
VH: B8 VH with D52E, P53Q, E54M, R56W
VL: B8 VL with V92L, V93D, L97Q
notes: as for B9
B11: 4E11 Fab (Fab, V domains shown)
VH: B8 VH with D52E, E54M, R56Q, Q57L, Y59E
VL: B8 VL with T91A, V92L, V93D, P96L, L97M
notes: as for B9
B12: 6F8 Fab (Fab, V domains shown)
VH: B9 VH with E52D, K59Y
VL: B8 VL with T91A, V92L, P96L, L97T
notes: C-terminally His-tagged Fab from the periplasm of E. coli; As printed its variable domains equal those of 6B7
B13: 6B7 Fab (Fab, V domains shown)
VH: B9 VH with E52D, K59Y
VL: B8 VL with T91A, V92L, P96L, L97T
notes: as for B9
B14: masking moiety JS5872 (peptide)
peptide: GCNIWLNGGDCRGWVDPLQG
B15: masking moiety JS4896 (peptide)
peptide: CNLWVSGGDCGGLQG
B16: masking moiety JS4899 (peptide)
peptide: YCLQLPHYMQAMCGR
B17: anti-Jagged 13 IgG (antibody, V domains shown)
VH: B9 VH with E53T, M54Q, W56P, Q57T, K59L, S99T, A100S, A101S
VL: DIQMTQSPSSLSASVGDRVTITCRASQSISSYLNWYQQKPGKAPKLLIYASSLQSGVPSRFSGSGSGTDFTLTIGSLQPEDFATYYCQQNVATPLTFGQGTKVEIKR
notes: Fully human IgG made from the variable domains of ScFv Jagged 13; also called anti-Jag 13
B18: anti-Jagged 32 IgG (antibody, V domains shown)
VH: B9 VH with E53Q, K59Y
VL: B17 VL with S51A, G75S, N90T, A92V, T93A
notes: Fully human IgG made from the variable domains of ScFv Jagged 32; also called anti-Jag 32; antibody 32/32
B19: anti-Jagged 13 Fab (Fab, V domains shown)
VH: B9 VH with E53T, M54Q, W56P, Q57T, K59L, S99T, A100S, A101S
VL: B17 VL
notes: Fab expressed in E. coli; also called Jag13
B20: anti-Jagged 32 Fab (Fab, V domains shown)
VH: B9 VH with E53Q, K59Y
VL: B17 VL with S51A, G75S, N90T, A92V, T93A
notes: Fab expressed in E. coli; also called Jag32
B21: masking moiety JS5887 (peptide)
peptide: GCNIWANGGDCRGWIDNIDG

How the values were obtained:
4D11 Fab [1] = target: B8; test: FACS of bacteria displaying the peptide
[2] = target: T4, anti-Jagged antibody 4D11 (fully human IgG); test: FACS of bacteria displaying the peptide
T4 construct: Human IgG1 kappa from HEK-293 cells; Labeled with Alexa Fluor 680 in the tissue stainings, biotinylated in the peptide screens; also called anti-Jagged 4D11; 4D11 antibody

4D11 Fab [3] = target: B8; test: FACS of bacteria displaying the peptide, labeled Fab 4D11, normalized to expression
[4] = target: T5, human Jagged 2-Fc (R&D Systems Cat #1726-JG-050) (human, UniProt Q9Y219 27-1080, limits assumed); test: BLI (Octet), Jagged-Fc on anti-human Fc tips, Fab in solution
T5 construct: Bought reagent; also called hJag2; h Jagged 2; not shown: Fc part
Procedure: (§1) Off rates for individual Fabs were measured using an Octet (ForteBio, Menlo Park, Calif.). […] Following a wash, the loaded tips were exposed to 25 μM Fab until binding had reached equilibrium. The tips were then removed to a fresh solution with no Fab, and the rate of Fab dissociation was measured.

[5] = target: T6, murine Jagged 2-Fc (R&D Systems) (murine, UniProt Q9QYE5 24-1082, limits assumed); test: as above
T6 construct: Bought reagent, cited as ibid. although no catalogue number is printed anywhere; also called m Jagged 2; not shown: Fc part
Procedure: as §1

[6] = target: T5, human Jagged 2-Fc (R&D Systems Cat …); test: drawn table 'Kd (nM)' of Fab; method not stated; the legend names the matured antibody as 4D11
masking moiety JS5872 = target: B14; test: FACS of cells displaying the masking peptide, labelled Fab 4D11, signal normalised to expression; Fab concentration not given
masking moiety JS5877 = target: B4; test: as above
masking moiety JS5885 = target: B5; test: as above
masking moiety JS5887 = target: B21; test: as above
JS5340 = target: T1, JS5340; test: FACS of cells displaying the peptide, biotinylated anti-Jagged Fab at 1, 10 and 100 nM, streptavidin-PE, normalised to expression with yPet-MONA
JS5347 = target: T2, JS5347; test: as above
JS5358 = target: T3, JS5358; test: as above
masking moiety JS5342 = target: B2; test: as above
[7] = target: T7, human Jagged 1-Fc (extracellular domain of human Jagged 1 fused to the Fc portion of human IgG1); R&D Systems … (human, UniProt P78504 34-1067); test: BLI (Octet), Jagged-Fc on anti-human Fc tips, Fab in solution
T7 construct: extracellular domain; Bought reagent; also called hJag1; h Jagged 1; not shown: Fc portion of human IgG1
Procedure: as §1

[8] = target: T7, human Jagged 1-Fc (extracellular domain …); test: ELISA, ligand-Fc coated, anti-human IgG Fab-specific HRP
Procedure: (§2) Bound antibody was visualized with an anti-human IgG-HRP conjugate, Fab specific, (Sigma, St Louis, Mo.; Cat # A0293-1ML) and developed with the chromogenic substrate TMB.

[9] = target: T5, human Jagged 2-Fc (R&D Systems Cat …); test: as above
Procedure: as §2

T6 sequence (Q9QYE5 24-1082 limits assumed): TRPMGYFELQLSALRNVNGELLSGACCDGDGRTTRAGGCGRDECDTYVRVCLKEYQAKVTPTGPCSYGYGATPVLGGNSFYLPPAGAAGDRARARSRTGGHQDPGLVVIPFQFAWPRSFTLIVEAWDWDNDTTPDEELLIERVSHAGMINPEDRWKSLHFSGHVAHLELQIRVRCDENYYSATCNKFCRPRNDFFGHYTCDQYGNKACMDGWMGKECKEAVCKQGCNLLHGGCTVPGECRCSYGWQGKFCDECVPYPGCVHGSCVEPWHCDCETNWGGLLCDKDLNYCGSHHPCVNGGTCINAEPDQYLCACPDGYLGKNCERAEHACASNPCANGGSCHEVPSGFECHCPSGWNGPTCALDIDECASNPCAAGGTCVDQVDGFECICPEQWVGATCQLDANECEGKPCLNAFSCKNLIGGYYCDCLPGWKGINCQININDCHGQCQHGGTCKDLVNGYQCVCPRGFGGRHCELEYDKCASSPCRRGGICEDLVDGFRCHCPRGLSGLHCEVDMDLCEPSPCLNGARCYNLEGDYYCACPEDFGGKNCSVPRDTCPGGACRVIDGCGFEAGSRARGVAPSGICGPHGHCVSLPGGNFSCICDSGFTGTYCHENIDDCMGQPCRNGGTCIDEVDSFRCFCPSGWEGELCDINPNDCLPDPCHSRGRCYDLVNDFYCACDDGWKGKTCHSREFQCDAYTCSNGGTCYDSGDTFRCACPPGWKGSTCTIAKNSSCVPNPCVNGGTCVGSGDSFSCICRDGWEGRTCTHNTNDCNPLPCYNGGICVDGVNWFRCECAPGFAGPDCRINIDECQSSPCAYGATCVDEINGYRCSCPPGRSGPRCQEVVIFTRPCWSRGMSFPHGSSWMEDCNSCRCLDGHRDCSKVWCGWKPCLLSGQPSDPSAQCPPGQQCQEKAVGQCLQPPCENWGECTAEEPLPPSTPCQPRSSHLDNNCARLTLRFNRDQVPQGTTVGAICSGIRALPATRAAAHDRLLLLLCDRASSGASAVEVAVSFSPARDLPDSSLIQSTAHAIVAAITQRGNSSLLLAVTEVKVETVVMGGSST
T5 sequence (Q9Y219 27-1080 limits assumed): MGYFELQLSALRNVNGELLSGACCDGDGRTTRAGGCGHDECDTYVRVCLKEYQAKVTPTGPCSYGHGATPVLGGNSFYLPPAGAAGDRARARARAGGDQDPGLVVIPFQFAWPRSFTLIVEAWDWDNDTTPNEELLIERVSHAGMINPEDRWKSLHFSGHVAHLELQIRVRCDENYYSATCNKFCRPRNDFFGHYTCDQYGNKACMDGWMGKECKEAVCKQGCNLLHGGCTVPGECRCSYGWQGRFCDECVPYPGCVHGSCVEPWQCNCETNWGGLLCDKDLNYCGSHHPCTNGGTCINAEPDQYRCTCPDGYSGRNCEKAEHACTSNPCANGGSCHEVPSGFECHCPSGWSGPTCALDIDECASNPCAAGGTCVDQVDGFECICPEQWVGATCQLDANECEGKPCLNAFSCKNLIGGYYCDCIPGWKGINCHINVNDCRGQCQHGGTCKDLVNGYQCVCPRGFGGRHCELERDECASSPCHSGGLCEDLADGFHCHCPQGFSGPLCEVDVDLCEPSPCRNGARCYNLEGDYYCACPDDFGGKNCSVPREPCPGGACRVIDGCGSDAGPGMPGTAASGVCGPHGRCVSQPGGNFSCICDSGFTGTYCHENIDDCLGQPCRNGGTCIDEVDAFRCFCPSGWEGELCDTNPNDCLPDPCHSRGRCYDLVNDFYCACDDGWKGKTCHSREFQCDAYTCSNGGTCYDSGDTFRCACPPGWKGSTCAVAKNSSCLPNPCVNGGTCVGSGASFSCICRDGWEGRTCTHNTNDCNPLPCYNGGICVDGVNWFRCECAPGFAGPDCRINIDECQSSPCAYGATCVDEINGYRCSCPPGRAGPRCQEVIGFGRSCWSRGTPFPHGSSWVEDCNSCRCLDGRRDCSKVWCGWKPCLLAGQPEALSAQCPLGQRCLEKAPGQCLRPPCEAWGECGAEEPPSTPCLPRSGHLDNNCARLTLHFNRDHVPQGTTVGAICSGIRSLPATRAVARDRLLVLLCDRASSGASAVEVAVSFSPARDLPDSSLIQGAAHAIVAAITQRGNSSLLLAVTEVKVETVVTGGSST

Binder: B1
- binding result (4D11 Fab [1]): binds
- binding result [2]: binds

Binder: B2
- binding result (4D11 Fab [3]): binds

Binder: B3
- binding result (4D11 Fab [1]): binds
- binding result [2]: binds

Binder: B4
- binding result (4D11 Fab [3]): binds

Binder: B5
- binding result (4D11 Fab [3]): binds

Binder: B6
- binding result (4D11 Fab [1]): binds
- binding result [2]: binds

Binder: B7
- binding result (4D11 Fab [1]): binds
- binding result [2]: binds

Binder: B8
- koff [4]: 0.00045 s⁻¹
- koff [5]: 0.00042 s⁻¹
- Kd [6]: < 1 nM
- binding result (masking moiety JS5872): binds
- binding result (masking moiety JS5877): binds
- binding result (masking moiety JS5885): binds
- binding result (masking moiety JS5887): binds
- binding result (JS5340): binds
- binding result (JS5347): binds
- binding result (JS5358): binds
- binding result (masking moiety JS5342): binds

Binder: B9
- koff [7]: 0.00069 s⁻¹

Binder: B10
- koff [7]: 0.0005 s⁻¹
- koff [4]: 0.0065 s⁻¹
- koff [5]: 0.0011 s⁻¹

Binder: B11
- koff [7]: 0.0014 s⁻¹
- koff [4]: 0.00057 s⁻¹
- koff [5]: 2.5e-05 s⁻¹

Binder: B12
- koff [7]: 0.0012 s⁻¹

Binder: B13
- koff [7]: 0.00035 s⁻¹

Binder: B14
- binding result (4D11 Fab [3]): binds

Binder: B15
- binding result (4D11 Fab [1]): binds
- binding result [2]: binds

Binder: B16
- binding result (4D11 Fab [1]): binds
- binding result [2]: binds

Binder: B17
- affinity (ELISA) [8]: > 30 nM
- affinity (ELISA) [9]: > 30 nM

Binder: B18
- affinity (ELISA) [8]: > 30 nM

Binder: B19
- koff [7]: 0.022 s⁻¹
- koff [4]: 0.001 s⁻¹
- koff [5]: 0.0028 s⁻¹

Binder: B20
- koff [7]: 0.027 s⁻¹

Binder: B21
- binding result (4D11 Fab [3]): binds
